The data set concerns the molecule itself. Put plainly: crystal structure.

B1: MarR family protein Rv2887 (natural protein)
chain: MGLADDAPLGYLLYRVGAVLRPEVSAALSPLGLTLPEFVCLRMLSQSPGLSSAELARHASVTPQAMNTVLRKLEDAGAVARPASVSSGRSLPATLTARGRALAKRAEAVVRAADARVLARLTAPQQREFKRMLEKLGSD
notes: also called MarR-like protein Rv2887; apo-Rv2887
For B1, the binding result is “binds”.
